According to patent US20220363748A1 (AstraZeneca / MedImmune, published 2022):
Where a chain is given by its changes, count along the chain named. Values belong to the binder of their own block, whether it stands above or below them.

What was measured:
[1] = target: T1, EGFR-Fc (R&D Systems #344-ER-050) (UniProt P00533 25-645); experiment: ELISA: biotinylated antigen on streptavidin plate, EGFR-Fc with or without untagged RAGE, detection with anti-human IgG HRP
T1 construct: Bought reagent; not shown: Fc part of the bought fusion; detected with anti-human IgG
Method: (§1) Plates were washed 3×with 200 μl PBS-T (PBS +1% (v/v) Tween-20) and blocked with 300 μl/well blocking buffer (PBS with 1% BSA (Sigma, A9576)) for 1 hour. […] Plates were washed with 200 μl PBS-T three times. […] Plates were washed 3×with PBS-T and developed with TMB, 100 μl/well (Sigma, T0440). The reaction was quenched with 50 μl/well 0.1 M H2504. Absorbance was read at 450nm on the Cytation Gen5 or similar equipment.

[2] = target: T2, RAGE-Fc (R&D Systems #1145-RG) (UniProt Q15109 24-344); experiment: ELISA: biotinylated antigen on streptavidin plate, RAGE-Fc, detection with anti-human IgG HRP
T2 construct: Bought reagent; not shown: Fc part of the bought fusion; detected with anti-human IgG
T2 sequence (Q15109 24-344 limits assumed): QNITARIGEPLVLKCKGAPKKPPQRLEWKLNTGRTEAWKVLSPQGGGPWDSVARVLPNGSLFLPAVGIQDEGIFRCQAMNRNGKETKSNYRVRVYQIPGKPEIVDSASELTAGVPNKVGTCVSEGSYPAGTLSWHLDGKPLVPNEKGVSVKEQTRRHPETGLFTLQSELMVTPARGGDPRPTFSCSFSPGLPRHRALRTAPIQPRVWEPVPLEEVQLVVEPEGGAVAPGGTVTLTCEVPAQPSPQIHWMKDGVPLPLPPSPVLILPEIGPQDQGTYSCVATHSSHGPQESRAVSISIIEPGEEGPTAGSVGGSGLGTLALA
Method: as §1

[3] = target: T2, RAGE-Fc (R&D Systems #1145-RG); experiment: ELISA: biotinylated oxIL-33 on streptavidin plate, RAGE-Fc 10 µg/mL, anti-human IgG HRP
Method: as §1

[4] = target: T1, EGFR-Fc (R&D Systems #344-ER-050); experiment: ELISA: biotinylated antigen on streptavidin plate, EGFR-Fc, detection with anti-human IgG HRP
Method: as §1

[5] = target: T2, RAGE-Fc (R&D Systems #1145-RG); experiment: ELISA: biotinylated antigen on streptavidin plate, RAGE-Fc at 10 µg/mL, detection with anti-human IgG HRP
Method: as §1

[6] = target: T3, ST2S-Fc-His6 fusion protein (human, UniProt Q01638 19-328); experiment: depletion of remaining reduced IL-33 from the oxIL-33 preparation, in solution, then size exclusion
T3 construct: CD33 signal peptide used for secretion, not part of the protein; also called soluble human ST2S extracellular domain fused to human IgG1 Fc-His6; human ST2 ECD
T3 sequence: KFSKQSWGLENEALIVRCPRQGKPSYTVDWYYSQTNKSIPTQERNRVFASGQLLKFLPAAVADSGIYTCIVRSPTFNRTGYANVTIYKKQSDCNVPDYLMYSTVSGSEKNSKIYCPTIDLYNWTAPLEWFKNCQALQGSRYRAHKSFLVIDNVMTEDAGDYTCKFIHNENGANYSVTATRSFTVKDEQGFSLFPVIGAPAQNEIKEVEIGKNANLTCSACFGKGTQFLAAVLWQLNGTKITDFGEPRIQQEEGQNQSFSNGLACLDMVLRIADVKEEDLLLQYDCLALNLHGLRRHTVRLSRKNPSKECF

binding result [1]: no binding | binding result [2]: no binding
B1: IL-33[C->S] (ligand)
cytokine: MHHHHHHHHHHAAGLNDIFEAQKIEWHEAAIEGRSITGISPITEYLASLSTYNDQSITFALEDESYEIYVEDLKKDEKKDKVLLSYYESQHPSNESGDGVDGKMLMVTLSPTKDFWLHANNKEHSVELHKSEKPLPDQAFFVLHNMHSNSVSFESKTDPGVFIGVKDNHLALIKVDSSENLSTENILFKLSET
modifications: biotinylated at the Avitag with BirA
notes: also called IL33-16

binding result [3]: binds
B2: Avitag_IL-33-01 (oxidised IL-33), biotinylated (ligand)
chain: B1 cytokine with S131C, S150C, S155C, S182C
modifications: biotinylated on the Avitag with BirA; oxidised (disulphide bonded) form of IL-33
notes: also called oxIL-33; oxidised IL-33-01

binding result [2]: no binding
B3: Biotinylated EGF (Thermo) (ligand, UniProt P01133 971-1023, looked up)
chain: NSDSECPLSHDGYCLHDGVCMYIEALDKYACNCVVGYIGERCQYRDLKWWELR
modifications: biotinylated (bought so)

binding result [4]: no binding | binding result [5]: binds
B4: HMGB1 (R&D systems 1690-HMB-050), biotinylated (ligand, UniProt P09429 1-215, looked up)
chain: MGKGDPKKPRGKMSSYAFFVQTCREEHKKKHPDASVNFSEFSKKCSERWKTMSAKEKGKFEDMAKADKARYEREMKTYIPPKGETKKKFKDPNAPKRPPSAFFLFCSEYRPKIKGEHPGLSIGDVAKKLGEMWNNTAADDKQPYEKKAAKLKEKYEKDIAAYRAKGKPDAAKKGVVKAEKSKKKKEEEEDEEDEEDEEEEEDEEDEDEEEDDDDE
modifications: biotinylated via free amines (EZ link Sulfo-NHS-LC-Biotin)

binding result [6]: binds
B5: Untagged IL33-01 (reduced IL-33) (ligand)
chain: SITGISPITEYLASLSTYNDQSITFALEDESYEIYVEDLKKDEKKDKVLLSYYESQHPSNESGDGVDGKMLMVTLSPTKDFWLHANNKEHSVELHKCEKPLPDQAFFVLHNMHSNCVSFECKTDPGVFIGVKDNHLALIKVDSSENLCTENILFKLSET
notes: also called redIL-33; wild type IL-33
